Test results published in article PMC4446428, “A novel RNA binding surface of the TAM domain of TIP5/BAZ2A mediates epigenetic regulation of rRNA genes”.

Columns and labels:
[1] = system: TIP5/TAM-AT (Homo sapiens); assay: filter binding (Scatchard); conditions: 5 mM Mg2+, protein preincubated with 4x excess unlabeled MCS-RNA, EMSA: 12 mM Tris-HCl pH 8.0, 100 mM KCl, 5 mM MgCl2, 0.1 mM EDTA, 0.5 mM DTT, 3% glycerol, on ice, filter binding: 10 mM Tris-HCl pH 7.4, 100 mM KCl
TIP5/TAM [2] = target: T1, TIP5/TAM (Homo sapiens, UniProt Q9UIF9 516-623); assay: NMR titration; negligible shift changes; EMSA: 12 mM Tris-HCl pH 8.0, 100 mM KCl, 5 mM MgCl2, 0.1 mM EDTA, 0.5 mM DTT, 3% glycerol, on ice; filter binding: 10 mM Tris-HCl pH 7.4, 100 mM KCl, 5 mM MgCl2, on ice; NMR: 20 mM Na phosphate pH 7.0, 50 mM NaCl, 1 mM DTT, 298 K (TAM-AT) or 293 K (TAM); conditions: protein: recombinant; tags: His6-GB1, TEV-removed; label: none; single-stranded
T1 sequence: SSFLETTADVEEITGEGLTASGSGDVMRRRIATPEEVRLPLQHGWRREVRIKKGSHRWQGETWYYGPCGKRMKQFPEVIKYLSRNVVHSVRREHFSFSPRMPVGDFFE

TIP5/TAM [3] = target: T1, TIP5/TAM; assay: NMR titration; EMSA: 12 mM Tris-HCl pH 8.0, 100 mM KCl, 5 mM MgCl2, 0.1 mM EDTA, 0.5 mM DTT, 3% glycerol, on ice; filter binding: 10 mM Tris-HCl pH 7.4, 100 mM KCl, 5 mM MgCl2, on ice; NMR: 20 mM Na phosphate pH 7.0, 50 mM NaCl, 1 mM DTT, 298 K (TAM-AT) or 293 K (TAM); conditions: protein: recombinant; tags: His6-GB1, TEV-removed; label: none; hairpin

Q: How did the Kd [1] turn out when pRNA (mouse rDNA -204/-1) was run?
A: 5.5 nM

B1: 13-mer poly-U RNA (ssRNA)
RNA: UUUUUUUUUUUUU
Q: Does B1 bind (TIP5/TAM [2])?
A: no binding

B2: Xist A-repeat RNA hairpin (structured_RNA)
RNA: GGCGCAUCGGCGCC
Q: Does B2 bind (TIP5/TAM [3])?
A: binds
